Data published in patent US20120321591A1 (COVX TECHNOLOGIES IRELAND, published 2012).
Bridges are numbered along the chain shown (N, C = ends). [ ]: non-standard residue; d: D form. Nle = CCCC[C@H](N)C(=O)O

Biological target: T1, recombinant human VEGF165 (human, UniProt P15692-4 27-191)
T1 construct: also called rhVEGF165
Assay: competition ELISA: VEGF165 binding to coated VEGFR2/Fc

T1 sequence (P15692 other isoform, or with tags, fused parts or gaps limits assumed): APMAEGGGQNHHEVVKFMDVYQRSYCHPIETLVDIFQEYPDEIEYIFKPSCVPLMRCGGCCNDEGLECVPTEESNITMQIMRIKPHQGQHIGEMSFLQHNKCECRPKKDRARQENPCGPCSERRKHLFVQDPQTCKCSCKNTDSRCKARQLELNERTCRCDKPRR

Ac-VEPNCDIHVMWVWECFERLYGIF-NH2 (disulfide 5-15 (inferred)) [[VEGF-Peptide] SEQ ID NO:40] and Ac-VEPNCDIHVMWVWECFERLYGWG-NH2 (disulfide 5-15 (inferred)) [[VEGF-Peptide] SEQ ID NO:42] are within 1.5-fold of each other in IC50: 78.3 nM for the first, 68.2 nM for the second.

Ac-VEPNCDIHVMWVWVCFERLYGGG-NH2 (disulfide 5-15 (inferred)) [[VEGF-Peptide] SEQ ID NO:43] and Ac-VEPNCDIHVMWVWECFERLYGLY-NH2 (disulfide 5-15 (inferred)) [[VEGF-Peptide] SEQ ID NO:44] are within 1.5-fold of each other in IC50: 66 nM for the first, 54.6 nM for the second.

Ac-VEPNCDIHVMWVWECFERLSGGG-NH2 (disulfide 5-15 (inferred)) [[VEGF-Peptide] SEQ ID NO:45] and Ac-VEPNCDIHVMWVWECFERLMRLT-NH2 (disulfide 5-15 (inferred)) [[VEGF-Peptide] SEQ ID NO:46] are within 1.5-fold of each other in IC50: 51 nM for the first, 44.1 nM for the second.

Ac-VEPNCDIHVMWVWECFERLYGIL-NH2 (disulfide 5-15 (inferred)) [[VEGF-Peptide] SEQ ID NO:50] and Ac-VEPNCDIHVMWVWECFERLFKEA-NH2 (disulfide 5-15 (inferred)) [[VEGF-Peptide] SEQ ID NO:53] are within 1.5-fold of each other in IC50: 34.4 nM for the first, 31.4 nM for the second.

Ac-VEPNCDIHVMWVWECFERLYGGF-NH2 (disulfide 5-15 (inferred)) [[VEGF-Peptide] SEQ ID NO:56] and Ac-VEPNCDIHVMWVWECFERLMGLT-NH2 (disulfide 5-15 (inferred)) [[VEGF-Peptide] SEQ ID NO:59] are within 1.5-fold of each other in IC50: 26.2 nM for the first, 25 nM for the second.

Ac-VEPNCDIHVMWVWECFERLYGGG-NH2 (disulfide 5-15 (inferred)) [[VEGF-Peptide] SEQ ID NO:61] and Ac-VEPNCDIHVMWVWECFERLMREL-NH2 (disulfide 5-15 (inferred)) [[VEGF-Peptide] SEQ ID NO:63] are within 1.5-fold of each other in IC50: 23.6 nM for the first, 24 nM for the second.

Ac-VEPNCDIHVMWVWECFERLMKEL-NH2 (disulfide 5-15 (inferred)) [[VEGF-Peptide] SEQ ID NO:65] and Ac-VEPNCDIHVMWVWECFERLYGPW-NH2 (disulfide 5-15 (inferred)) [[VEGF-Peptide] SEQ ID NO:66] are within 1.5-fold of each other in IC50: 18 nM for the first, 18.7 nM for the second.

Going from Ac-VEPNCDIHVMWVWECFERLYGEF-NH2 (disulfide 5-15 (inferred)) [[VEGF-Peptide] SEQ ID NO:70] to Ac-VEPNCDIHVMWVWECFERLYGLS-NH2 (disulfide 5-15 (inferred)) [[VEGF-Peptide] SEQ ID NO:71], the IC50 falls from 9.3 nM to 5.4 nM (1.7-fold).

Ac-VEPNCDIHVMWVWECFERLYGVQ-NH2 (disulfide 5-15 (inferred)) [[VEGF-Peptide] SEQ ID NO:74] and Ac-VEPNCDIHVMWVWECFERLYGLE-NH2 (disulfide 5-15 (inferred)) [[VEGF-Peptide] SEQ ID NO:75] are within 1.5-fold of each other in IC50: 4 nM for the first, 3 nM for the second.

Ac-VEPNCDIHVMWVWECFERLYGPL-NH2 (disulfide 5-15 (inferred)) [[VEGF-Peptide] SEQ ID NO:76] and Ac-VEPNCDIHVMWVWECFERLYGPF-NH2 (disulfide 5-15 (inferred)) [[VEGF-Peptide] SEQ ID NO:77] are within 1.5-fold of each other in IC50: 2.3 nM for the first, 1.8 nM for the second.

Compared with Ac-VEPNCDIHVMWVWECFERLMK-NH2 (disulfide 5-15 (inferred)) [[VEGF-Peptide] SEQ ID NO:62], Ac-VEPNCDIHVMWVWVCFERLMK-NH2 (disulfide 5-15 (inferred)) [[VEGF-Peptide] SEQ ID NO:38] is 3.7-fold higher in IC50: 25 nM for the first, 92.6 nM for the second.

Ac-VEPNCDIHVMWVWECFERLYG-NH2 (disulfide 5-15 (inferred)) [[VEGF-Peptide] SEQ ID NO:47] and Ac-VEPNCDIHVMWVWECFERLVK-NH2 (disulfide 5-15 (inferred)) [[VEGF-Peptide] SEQ ID NO:48] are within 1.5-fold of each other in IC50: 43.3 nM for the first, 42.4 nM for the second.

Ac-VEPNCDIHVMWVWECFERLMR-NH2 (disulfide 5-15 (inferred)) [[VEGF-Peptide] SEQ ID NO:49] and Ac-VEPNCDIHVMWVWECFERLIK-NH2 (disulfide 5-15 (inferred)) [[VEGF-Peptide] SEQ ID NO:57] are within 1.5-fold of each other in IC50: 34.5 nM for the first, 25.4 nM for the second.

First: Ac-VEPNCDIHVMWVWECFERLYK-NH2 (disulfide 5-15 (inferred)) [[VEGF-Peptide] SEQ ID NO:58]
Second: Ac-VEPNCDIHVMWVWECFERLLK-NH2 (disulfide 5-15 (inferred)) [[VEGF-Peptide] SEQ ID NO:67]
The IC50 of the first is 2.5-fold higher: 25.1 nM for the first, 10.1 nM for the second.

Ac-VEPNCDIHVMWVWECFERL-NH2 (disulfide 5-15 (inferred)) [[VEGF-Peptide] SEQ ID NO:64] and Ac-VEPNCDIHVMWVWECFERLYGG-NH2 (disulfide 5-15 (inferred)) [[VEGF-Peptide] SEQ ID NO:52] are within 1.5-fold of each other in IC50: 24 nM for the first, 32.3 nM for the second.

Going from Ac-VEPNCDIHVMWVWECFERLYGL-NH2 (disulfide 5-15 (inferred)) [[VEGF-Peptide] SEQ ID NO:72] to Ac-VEPNCDIHVMWVWECFERL[Nle]K-NH2 (disulfide 5-15) [[VEGF-Peptide] SEQ ID NO:54], the IC50 rises from 4.8 nM to 28.6 nM (6-fold).

First: Ac-VEPNCDIHVMWVWECFERL[dL]K(Ac)-NH2 (disulfide 5-15) [[VEGF-Peptide] SEQ ID NO:60]
Second: Ac-VEPNCDIHVMWVWECFERLLK(Ac)-NH2 (disulfide 5-15) [[VEGF-Peptide] SEQ ID NO:68]
The IC50 of the first is 2.5-fold higher: 25 nM for the first, 10 nM for the second. The second is the more potent here.

For Ac-VEPNCDIHVMWVWECFERLY-NH2 (disulfide 5-15 (inferred)) [[VEGF-Peptide] SEQ ID NO:41], the IC50 was 69.9 nM.
